Measured values as given in patent US20260176319A1 (KALLYOPE, published 2026).
Starred links: 1 amine or outer side, 2 acyl side, 3 side chain; linkers in the order of their positions; H or OH if unused. Non-standard residues stand in square brackets, D forms with d. *: point of attachment. Trp(7-Me) = Cc1cccc2c(C[C@H](N)C(=O)O)c[nH]c12; C20 diacid = O=C(O)CCCCCCCCCCCCCCCCCCC(=O)*; d(γGlu) = O=C(O)[C@@H](CCC(=O)[*:2])N[*:1]; γGlu = O=C(O)[C@H](CCC(=O)[*:2])N[*:1]; NMeH = CN[C@@H](Cc1c[nH]cn1)C(=O)O; Palmitoyl = CCCCCCCCCCCCCCCC(=O)*; Hyp = O=C(O)[C@@H]1C[C@@H](O)CN1; 2CE‑PEG‑TMEA = not defined here; 5CTMPA = not defined here; Nle = CCCC[C@H](N)C(=O)O; ACBA = not defined here; ACPA = not defined here; ACPC = not defined here; Dap = NC[C@H](N)C(=O)O; AEEA = NCCOCCOCC(=O)O; βAla = NCCC(=O)O; Sar = CNCC(=O)O

B1: Peptide 255 (peptide)
peptide: {C20 diacid}-[γGlu]E[AEEA][AEEA]SGEH[Trp(7-Me)]AV[βAla]HL[Nle]-NH2
SMILES: CCCC[C@H](NC(=O)[C@H](CC(C)C)NC(=O)[C@H](Cc1c[nH]cn1)NC(=O)CCNC(=O)[C@@H](NC(=O)[C@H](C)NC(=O)[C@H](Cc1c[nH]c2c(C)cccc12)NC(=O)[C@H](Cc1c[nH]cn1)NC(=O)[C@H](CCC(=O)O)NC(=O)CNC(=O)[C@H](CO)NC(=O)COCCOCCNC(=O)COCCOCCNC(=O)[C@H](CCC(=O)O)NC(=O)CC[C@H](NC(=O)CCCCCCCCCCCCCCCCCCC(=O)O)C(=O)O)C(C)C)C(N)=O
B2: Peptide 257 (peptide)
peptide: {C20 diacid}-[γGlu][γGlu][AEEA][AEEA]ESQH[Trp(7-Me)]AV[βAla]HL[Nle]-NH2
SMILES: CCCC[C@H](NC(=O)[C@H](CC(C)C)NC(=O)[C@H](Cc1c[nH]cn1)NC(=O)CCNC(=O)[C@@H](NC(=O)[C@H](C)NC(=O)[C@H](Cc1c[nH]c2c(C)cccc12)NC(=O)[C@H](Cc1c[nH]cn1)NC(=O)[C@H](CCC(N)=O)NC(=O)[C@H](CO)NC(=O)[C@H](CCC(=O)O)NC(=O)COCCOCCNC(=O)COCCOCCNC(=O)CC[C@H](NC(=O)CC[C@H](NC(=O)CCCCCCCCCCCCCCCCCCC(=O)O)C(=O)O)C(=O)O)C(C)C)C(N)=O
B3: Peptide 253 (peptide)
peptide: {C20 diacid}-[γGlu][γGlu][AEEA][AEEA]RRH[Trp(7-Me)]AV[βAla]HL[Nle]-NH2
SMILES: CCCC[C@H](NC(=O)[C@H](CC(C)C)NC(=O)[C@H](Cc1c[nH]cn1)NC(=O)CCNC(=O)[C@@H](NC(=O)[C@H](C)NC(=O)[C@H](Cc1c[nH]c2c(C)cccc12)NC(=O)[C@H](Cc1c[nH]cn1)NC(=O)[C@H](CCCNC(=N)N)NC(=O)[C@H](CCCNC(=N)N)NC(=O)COCCOCCNC(=O)COCCOCCNC(=O)CC[C@H](NC(=O)CC[C@H](NC(=O)CCCCCCCCCCCCCCCCCCC(=O)O)C(=O)O)C(=O)O)C(C)C)C(N)=O
B4: Peptide 254 (peptide)
peptide: {C20 diacid}-[γGlu][γGlu][AEEA][AEEA]RGRH[Trp(7-Me)]AV[βAla]HL[Nle]-NH2
SMILES: CCCC[C@H](NC(=O)[C@H](CC(C)C)NC(=O)[C@H](Cc1c[nH]cn1)NC(=O)CCNC(=O)[C@@H](NC(=O)[C@H](C)NC(=O)[C@H](Cc1c[nH]c2c(C)cccc12)NC(=O)[C@H](Cc1c[nH]cn1)NC(=O)[C@H](CCCNC(=N)N)NC(=O)CNC(=O)[C@H](CCCNC(=N)N)NC(=O)COCCOCCNC(=O)COCCOCCNC(=O)CC[C@H](NC(=O)CC[C@H](NC(=O)CCCCCCCCCCCCCCCCCCC(=O)O)C(=O)O)C(=O)O)C(C)C)C(N)=O
B5: Peptide 267 (peptide)
peptide: {C20 diacid}-[γGlu][AEEA][AEEA]GQHWAV[βAla][NMeH]L[Nle]-NH2
SMILES: CCCC[C@H](NC(=O)[C@H](CC(C)C)NC(=O)[C@H](Cc1c[nH]cn1)N(C)C(=O)CCNC(=O)[C@@H](NC(=O)[C@H](C)NC(=O)[C@H](Cc1c[nH]c2ccccc12)NC(=O)[C@H](Cc1c[nH]cn1)NC(=O)[C@H](CCC(N)=O)NC(=O)CNC(=O)COCCOCCNC(=O)COCCOCCNC(=O)CC[C@H](NC(=O)CCCCCCCCCCCCCCCCCCC(=O)O)C(=O)O)C(C)C)C(N)=O
B6: Peptide 15 (peptide)
peptide: Palmitoyl-[d(γGlu)][AEEA][AEEA]GNHWAV[dA]HL[Nle][Sar]-NH2
SMILES: CCCCCCCCCCCCCCCC(=O)N[C@H](CCC(=O)NCCOCCOCC(=O)NCCOCCOCC(=O)NCC(=O)N[C@@H](CC(N)=O)C(=O)N[C@@H](Cc1c[nH]cn1)C(=O)N[C@@H](Cc1c[nH]c2ccccc12)C(=O)N[C@@H](C)C(=O)N[C@H](C(=O)N[C@H](C)C(=O)N[C@@H](Cc1c[nH]cn1)C(=O)N[C@@H](CC(C)C)C(=O)N[C@@H](CCCC)C(=O)N(C)CC(N)=O)C(C)C)C(=O)O
B7: Peptide 266 (peptide)
peptide: {C20 diacid}-[γGlu][AEEA][AEEA]GEGEHWAV[βAla]HL[Nle]-NH2
SMILES: CCCC[C@H](NC(=O)[C@H](CC(C)C)NC(=O)[C@H](Cc1c[nH]cn1)NC(=O)CCNC(=O)[C@@H](NC(=O)[C@H](C)NC(=O)[C@H](Cc1c[nH]c2ccccc12)NC(=O)[C@H](Cc1c[nH]cn1)NC(=O)[C@H](CCC(=O)O)NC(=O)CNC(=O)[C@H](CCC(=O)O)NC(=O)CNC(=O)COCCOCCNC(=O)COCCOCCNC(=O)CC[C@H](NC(=O)CCCCCCCCCCCCCCCCCCC(=O)O)C(=O)O)C(C)C)C(N)=O
B8: Peptide 268 (peptide)
peptide: {C20 diacid}-[γGlu][AEEA][AEEA]PQHWAV[βAla]HL[Nle]-NH2
SMILES: CCCC[C@H](NC(=O)[C@H](CC(C)C)NC(=O)[C@H](Cc1c[nH]cn1)NC(=O)CCNC(=O)[C@@H](NC(=O)[C@H](C)NC(=O)[C@H](Cc1c[nH]c2ccccc12)NC(=O)[C@H](Cc1c[nH]cn1)NC(=O)[C@H](CCC(N)=O)NC(=O)[C@@H]1CCCN1C(=O)COCCOCCNC(=O)COCCOCCNC(=O)CC[C@H](NC(=O)CCCCCCCCCCCCCCCCCCC(=O)O)C(=O)O)C(C)C)C(N)=O
B9: Peptide 256 (peptide)
peptide: {C20 diacid}-[γGlu]E[AEEA][AEEA]SGRH[Trp(7-Me)]AV[βAla]HL[Nle]-NH2
SMILES: CCCC[C@H](NC(=O)[C@H](CC(C)C)NC(=O)[C@H](Cc1c[nH]cn1)NC(=O)CCNC(=O)[C@@H](NC(=O)[C@H](C)NC(=O)[C@H](Cc1c[nH]c2c(C)cccc12)NC(=O)[C@H](Cc1c[nH]cn1)NC(=O)[C@H](CCCNC(=N)N)NC(=O)CNC(=O)[C@H](CO)NC(=O)COCCOCCNC(=O)COCCOCCNC(=O)[C@H](CCC(=O)O)NC(=O)CC[C@H](NC(=O)CCCCCCCCCCCCCCCCCCC(=O)O)C(=O)O)C(C)C)C(N)=O
B10: Peptide 269 (peptide)
peptide: {C20 diacid}-[γGlu][AEEA][AEEA][Hyp]QHWAV[βAla]HL[Nle]-NH2
SMILES: CCCC[C@H](NC(=O)[C@H](CC(C)C)NC(=O)[C@H](Cc1c[nH]cn1)NC(=O)CCNC(=O)[C@@H](NC(=O)[C@H](C)NC(=O)[C@H](Cc1c[nH]c2ccccc12)NC(=O)[C@H](Cc1c[nH]cn1)NC(=O)[C@H](CCC(N)=O)NC(=O)[C@@H]1C[C@@H](O)CN1C(=O)COCCOCCNC(=O)COCCOCCNC(=O)CC[C@H](NC(=O)CCCCCCCCCCCCCCCCCCC(=O)O)C(=O)O)C(C)C)C(N)=O
B11: Peptide 16 (peptide)
peptide: Palmitoyl-[d(γGlu)][AEEA][AEEA]GEHWAV[dA]HL[Nle]-NH2
SMILES: CCCCCCCCCCCCCCCC(=O)N[C@H](CCC(=O)NCCOCCOCC(=O)NCCOCCOCC(=O)NCC(=O)N[C@@H](CCC(=O)O)C(=O)N[C@@H](Cc1c[nH]cn1)C(=O)N[C@@H](Cc1c[nH]c2ccccc12)C(=O)N[C@@H](C)C(=O)N[C@H](C(=O)N[C@H](C)C(=O)N[C@@H](Cc1c[nH]cn1)C(=O)N[C@@H](CC(C)C)C(=O)N[C@@H](CCCC)C(N)=O)C(C)C)C(=O)O

Target: human GRP receptor (human, UniProt P30550 1-384)
Test: cell-based or functional assay

Chain of human GRP receptor (P30550 whole entry): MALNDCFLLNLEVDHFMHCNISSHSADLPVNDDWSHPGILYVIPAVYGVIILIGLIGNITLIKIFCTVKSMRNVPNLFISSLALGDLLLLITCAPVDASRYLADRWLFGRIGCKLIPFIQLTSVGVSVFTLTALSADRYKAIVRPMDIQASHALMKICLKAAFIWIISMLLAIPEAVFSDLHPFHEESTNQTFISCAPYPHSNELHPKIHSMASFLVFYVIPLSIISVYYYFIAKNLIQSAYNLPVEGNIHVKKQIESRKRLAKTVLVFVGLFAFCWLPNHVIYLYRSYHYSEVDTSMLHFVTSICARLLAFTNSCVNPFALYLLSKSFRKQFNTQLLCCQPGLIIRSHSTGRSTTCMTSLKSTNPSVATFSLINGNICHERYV

Binder | hIP1 GRPR EC50 [nM]
{C20 diacid}-[γGlu][γGlu][AEEA][AEEA]GQH[Trp(7-Me)]AV[BABA][NMeH]L[Nle]-NH2 [Peptide 270] | 3.8
B1 | 6.9
{C20 diacid}-[γGlu][AEEA][AEEA]GQHWAV[βAla]HL[Hse(Me)]-NH2 [Peptide 265] | 7.7
B2 | 12.5
B3 | 3.7
B4 | 3.7
{C20 diacid}-[γGlu][AEEA][AEEA]GNH[Trp(7-Me)]AV[3A3MBA]HL[Nle]-NH2 [Peptide 264] | 8.6
{C20 diacid}-[γGlu][γGlu][AEEA][AEEA]GQH[Trp(7-Me)]AV[BABA]HL[Nle]-NH2 [Peptide 259] | 8.2
{C20 diacid}-[γGlu][AEEA][AEEA]G[Dap](2CE‑PEG‑TMEA)HWAV[βAla]HL[Nle]-NH2 (reading uncertain) [Peptide 262] | 4
B5 | 7.4
{C20 diacid}-[γGlu][γGlu][AEEA][AEEA]GNH[Trp(7-Me)]AV[BABA]HL[Nle]-NH2 [Peptide 258] | 6
B6 | 1.4
B7 | 11
{C20 diacid}-[γGlu][AEEA][AEEA]G[Dap](5CTMPA)HWAV[βAla]HL[Nle]-NH2 (reading uncertain) [Peptide 261] | 4
{C20 diacid}-[γGlu]E[AEEA][AEEA]GQHWAV[ACBA]HL[Nle]-NH2 (reading uncertain) [Peptide 273] | 12.3
{C20 diacid}-[γGlu][γGlu][AEEA][AEEA]GQHWAV[ACPA]HL[Nle]-NH2 (reading uncertain) [Peptide 272] | 6
B8 | 4.3
B9 | 3.7
{C20 diacid}-[γGlu][AEEA][AEEA]GQH[Trp(7-Me)]AV[BAIBA]HL[Nle]-NH2 [Peptide 263] | 2.7
B10 | 2.4
{C20 diacid}-[γGlu][γGlu][AEEA][AEEA]GQHWAV[ACPC]HL[Nle]-NH2 (reading uncertain) [Peptide 271] | 10.2
B11 | 5.8
